Measured values reported in publication doi:10.1101/2021.07.05.451181 (bioRxiv, 2021).

Biological target: the molecule itself
Assay: single-molecule photobleaching step counting

B1: GFP-TAX-4 (cyclic nucleotide-gated TAX-4 ion channel with EGFP fused to the cytosolic N-terminus) (natural protein, C. elegans, UniProt Q03611 1-733, looked up)
chain: MSTAEPAPDPTNPSTSGLAPTTNGIGSPPPTASAATKFSILTKFLRRKNQVHTTTAQQNEFMQKYMPNGNSNAVQPAATGGQPASSDGGSAIEVPPPKESYAVRIRKYLANYTQDPSTDNFYYWTCVVTVAYIYNLLFVIARQVFNDLIGPSSQSLCRFYNGTLNSTTQVECTYNMLTNMKEMPTYSQYPDLGWSKYWHFRMLWVFFDLLMDCVYLIDTFLNYRMGYMDQGLVVREAEKVTKAYWQSKQYRIDGISLIPLDYILGWPIPYINWRGLPILRLNRLIRYKRVRNCLERTETRSSMPNAFRVVVVVWYIVIIIHWNACLYFWISEWIGLGTDAWVYGHLNKQSLPDDITDTLLRRYVYSFYWSTLILTTIGEVPSPVRNIEYAFVTLDLMCGVLIFATIVGNVGSMISNMSAARTEFQNKMDGIKQYMELRKVSKQLEIRVIKWFDYLWTNKQSLSDQQVLKVLPDKLQAEIAMQVHFETLRKVRIFQDCEAGLLAELVLKLQLQVFSPGDFICKKGDIGREMYIVKRGRLQVVDDDGKKVFVTLQEGSVFGELSILNIAGSKNGNRRTANVRSVGYTDLFVLSKTDLWNALREYPDARKLLLAKGREILKKDNLLDENAPEEQKTVEEIAEHLNNAVKVLQTRMARLIVEHSSTEGKLMKRIEMLEKHLSRYKALARRQKTMHGVSIDGGDISTDGVDERVRPPRLRQTKTIDLPTGTESESLLK
In the case of B1, the “stoichiometry N” value is reported as 4.
